Target: N-terminally SNAP-tagged human β2AR (SNAP-β2AR) (human, UniProt P07550 1-413)
Test: single-molecule co-localisation

B1: bovine βArr2 tagged C-terminally with Halo (βArr2-Halo) (natural protein)
chain: MGEKPGTRVFKKSSPNCKLTVYLGKRDFVDHLDKVDPVDGVVLVDPDYLKDRKVFVTLTCAFRYGREDLDVLGLSFRKDLFIANYQAFPPTPNPPRPPTRLQERLLRKLGQHAHPFFFTIPQNLPCSVTLQPGPEDTGKACGVDFEIRAFCAKSLEEKSHKRNSVRLVIRKVQFAPEKPGPQPSAETTRHFLMSDRSLHLEASLDKELYYHGEPLNVNVHVTNNSTKTVKKIKVSVRQYADICLFSTAQYKCPVAQVEQDDQVSPSSTFCKVYTITPLLSNNREKRGLALDGKLKHEDTNLASSTIVKEGANKEVLGILVSYRVKVKLVVSRGGDVSVELPFVLMHPKPHDHIALPRPQSAAPETDAPVDTNLIEFETNYATDDDIVFEDFARLRLKGLKDEDYDDQFC
- average interaction time: ~1 s
